Experimental data from US20210347908A1 (ELPISCIENCE SUZHOU BIOPHARMA, published 2021).

What was measured:
[1] = target: T1, 6×His tagged human SIRPα v2 ECD recombinant protein (human); assay: SPR (Biacore), antibody captured
Method in brief: (§1)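 Chimeric anti-SIRPα antibodies captured on CM5 via anti-human antibody kit; His-tagged SIRPα ECD proteins injected as dilution series at 30 μl/min for 180 s, dissociation 400 s, regeneration with 3 M MgCl₂. Ka, Kd and KD from 1:1 binding model fits.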

[2] = target: T2, 6×His tagged human SIRPα v1 ECD recombinant protein (human, UniProt P78324 31-373); assay: SPR (Biacore), antibody captured
T2 construct: extracellular domain; bought; also called hSIRPα V1 (SPR antigen)
Method in brief: as §1

[3] = target: T3, full length human SIRPα v1 stably expressed on CHOK1 cells (human, UniProt P78324 31-504); assay: FACS on CHOK1-human SIRPα v1-1B4 cells
T3 construct: whole, on cells; also called CHOK1-human SIRPα v1-1B4 cells; CHOK1-human SIRPα v1
Protocol: Species cross reactivity of the purified hybridoma antibodies against human, cyno and mouse SIRPα was determined by FACS assay using CHOK1-human SIRPα v1-1B4 cells, CHOK1-cyno SIRPα-2A2 cells, and CHOK1-C57BL/6 mouse SIRPα-2.22 cells, which stably expressing SIRPα protein. Briefly the antibodies were incubated with 2×10⁵ target cells at 4° C. for 1 hour. After washing, fluorescence labeled anti-mouse or anti-human IgG 2nd antibody (Life Technologies) was added and incubated at 4° C. for 1 hour. Geometric median fluorescence intensity was detected and EC₅₀ was calculated. In particular, it is noted, in contrast to the other antibodies tested in the same experiment, 060 cannot bind with cyno SIRPα and 035 has cross reactivity against C57BL/6 mouse SIRPα.
hu035.01, the first version of humanized 035, was characterized by FACS assay using CHOK1-human SIRPα v1-1B4 cells, ELISA assay using Fc tagged human SIRPα v2 ECD recombinant protein and SPR analysis using the antigen of 6×His tagged human SIRPα v2 ECD recombinant protein (refer to methods described in Example 3.4, Example 3.3 and Example 4.3). […] In particular, hu035.01 cannot be detected to bind with C57BL/6 mouse SIRPα ECD in ELISA assay possibly due to reduced binding activity (FIG. 5B).

[4] = target: T4, 6×His tagged C57BL/6 mouse SIRPα ECD recombinant protein (mouse (C57BL/6), UniProt P97797 32-373); assay: ELISA on coated mouse SIRPα (C57BL/6) ECD [Continued) F]
T4 construct: extracellular domain; bought; also called mSIRPα (C57BL/6); mouse SIRPα (C57BL/6) ECD
T4 sequence: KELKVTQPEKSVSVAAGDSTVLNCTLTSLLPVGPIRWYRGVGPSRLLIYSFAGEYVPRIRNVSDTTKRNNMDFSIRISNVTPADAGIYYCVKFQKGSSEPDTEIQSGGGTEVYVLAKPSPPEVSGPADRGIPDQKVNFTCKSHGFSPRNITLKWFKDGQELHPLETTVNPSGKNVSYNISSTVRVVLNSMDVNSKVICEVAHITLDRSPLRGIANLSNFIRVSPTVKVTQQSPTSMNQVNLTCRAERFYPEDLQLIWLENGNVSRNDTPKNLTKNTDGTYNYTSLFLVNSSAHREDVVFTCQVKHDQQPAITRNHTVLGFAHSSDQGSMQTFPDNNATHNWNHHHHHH

[5] = target: T4, 6×His tagged C57BL/6 mouse SIRPα ECD …; assay: SPR (Biacore)
[6] = target: T1, 6×His tagged human SIRPα v2 ECD …; assay: SPR (Biacore)
[7] = target: T2, 6×His tagged human SIRPα v1 ECD …; assay: SPR (Biacore)

T1 sequence (chain, as listed by the source): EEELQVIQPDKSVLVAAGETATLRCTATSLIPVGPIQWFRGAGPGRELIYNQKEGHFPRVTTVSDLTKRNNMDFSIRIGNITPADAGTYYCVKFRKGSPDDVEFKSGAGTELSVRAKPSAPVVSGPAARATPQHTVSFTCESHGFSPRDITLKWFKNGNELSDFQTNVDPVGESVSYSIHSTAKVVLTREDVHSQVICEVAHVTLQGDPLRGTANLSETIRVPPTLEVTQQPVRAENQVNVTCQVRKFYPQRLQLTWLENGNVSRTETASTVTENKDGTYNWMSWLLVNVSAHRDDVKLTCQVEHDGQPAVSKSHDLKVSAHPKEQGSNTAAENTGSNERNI
T2 sequence (P78324 other isoform, or with tags, fused parts or gaps): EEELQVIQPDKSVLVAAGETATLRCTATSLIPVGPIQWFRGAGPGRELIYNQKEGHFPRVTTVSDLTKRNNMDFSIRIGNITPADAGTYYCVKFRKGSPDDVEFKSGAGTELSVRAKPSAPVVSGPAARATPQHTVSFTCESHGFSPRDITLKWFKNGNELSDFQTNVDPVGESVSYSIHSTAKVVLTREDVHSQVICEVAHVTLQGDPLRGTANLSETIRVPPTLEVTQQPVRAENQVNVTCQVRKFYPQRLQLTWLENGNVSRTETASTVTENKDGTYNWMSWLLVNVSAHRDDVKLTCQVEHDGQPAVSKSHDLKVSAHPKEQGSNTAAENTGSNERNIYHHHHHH
T3 sequence (P78324 31-504): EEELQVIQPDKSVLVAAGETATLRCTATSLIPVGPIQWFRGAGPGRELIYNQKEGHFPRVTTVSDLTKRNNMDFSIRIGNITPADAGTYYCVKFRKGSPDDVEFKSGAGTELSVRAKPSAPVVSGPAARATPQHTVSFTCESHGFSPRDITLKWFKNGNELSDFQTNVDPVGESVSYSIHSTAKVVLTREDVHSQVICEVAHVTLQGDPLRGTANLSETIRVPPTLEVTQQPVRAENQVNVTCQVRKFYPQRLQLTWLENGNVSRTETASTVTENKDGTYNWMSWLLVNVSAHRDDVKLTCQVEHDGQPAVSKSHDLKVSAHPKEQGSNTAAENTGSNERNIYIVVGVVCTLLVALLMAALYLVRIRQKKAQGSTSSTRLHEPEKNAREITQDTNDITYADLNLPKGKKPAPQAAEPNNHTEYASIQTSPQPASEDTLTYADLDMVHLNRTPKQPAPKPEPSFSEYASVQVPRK

B1: chimeric antibody 035c (antibody, V domains shown)
VH: QIQLVQSGPELRKPGETVKISCKASGYSFTNYAMNWVKQAPGKVLKWMGFINTYTGEPTYADDFKGRFAFSLETSASTAYLQINNLKNEDTATYFCTRTRGYYDFDGGAFDYWGQGTSLTVSS
VL: DIVMTQSQKFMSTSIGDRVSVTCKASQNVGTHLAWYQQKPGQSPKALIFSASYRYIGVPDRFTGSGSGTDFTLTITNVQSEDLAEYFCQQYNTYPLTFGAGTKLELK
Kd [1]: 3.82 nM
koff [1]: 0.000238 s⁻¹
kon [1]: 62100 M⁻¹ s⁻¹
Kd [2]: 1.89 nM
koff [2]: 0.000274 s⁻¹
kon [2]: 145000 M⁻¹ s⁻¹
EC50 (read off the curve) [3]: ~0.2 µg/mL
EC50 (read off the curve) [4]: ~0.3 µg/mL
Kd [5]: 5270 nM
Kd [6]: 1.39 nM
Kd [7]: 1.89 nM
